Experimental findings from PMC10297652, “Large-Scale Production of Anti-RNase A VHH Expressed in pyrG Auxotrophic Aspergillus oryzae” (Current Issues in Molecular Biology, 2023) are described below.

For orientation: Kd means the constant that tells how readily two partners part at equilibrium.

The target of the assay is T1, RNase A (Bos taurus (assumed; commercial RNase …, UniProt P61823).
T1 construct: RNase A (ribonuclease A), about 13.7 kDa, commercial; also called ribonuclease A; source: bought: Biofroxx (1263MG050)
T1 sequence (P61823 27-150): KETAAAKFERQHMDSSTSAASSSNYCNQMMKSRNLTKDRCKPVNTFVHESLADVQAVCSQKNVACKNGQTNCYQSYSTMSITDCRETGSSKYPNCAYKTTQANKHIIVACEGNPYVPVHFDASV
As to the kind of experiment: SPR; BIAcore T200, CM5 chip; Asp. VHH captured on flow cell 4; RNase A injected at 0, 2, 10, 50 nM, multi-cycle kinetics; HBS-EP+ pH 7.4; 25 °C; 1:1 binding model. The following applies: both partners purified. A general note: SPR reads the build-up and loss of mass on a sensor chip optically.

B1: anti-RNase A VHH expressed in pyrG auxotrophic Aspergillus oryzae (VHH)
VHH: QVQLVESGGGLVQAGGSLRLSCAASGYAYTYIYMGWFRQAPGKEREGVAAMDSGGGGTLYADSVKGRFTISRDKGKNTVYLQMDSLKPEDTATYYCAAGGYELRDRTYGQWGQGTQVTVSS
notes: DNA codon-optimized; about 13 kDa; also called Asp; VHH; anti-ribonuclease A VHH; source: pyrG(-) A. oryzae RIB40, secreted into the culture medium, purified (Ni-NTA IMAC, PD-10 desalting, Superdex 200 SEC); not shown: 8xHis, C-terminal, kept
For B1, the equilibrium dissociation constant (Kd) came to 1.91 nM.
